T1: murine claudin-3 wild type, untagged (Cld3wt) (mouse), Q9Z0G9
T1 chain: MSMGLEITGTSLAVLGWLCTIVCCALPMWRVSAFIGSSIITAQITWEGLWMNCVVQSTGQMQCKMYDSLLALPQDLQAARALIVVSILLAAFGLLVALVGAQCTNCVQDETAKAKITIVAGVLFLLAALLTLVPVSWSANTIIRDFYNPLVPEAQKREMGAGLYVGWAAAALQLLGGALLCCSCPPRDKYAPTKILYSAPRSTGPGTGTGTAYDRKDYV


What was measured:
[1] = molecular target: T1, murine claudin-3 wild type, untagged …; assay: contact enrichment; details: remark: other sources report otherwise
FRET or BRET = molecular target: the molecule itself; assay: FRET or BRET

percentage of contacts with EF > 1.5 (PE) [1]	Binder	mean FRET efficiency against the negative control Cld5/CRFR1 (FRET or BRET)
91%	murine claudin-3 wild type, untagged (Cld3wt), Q9Z0G9 1-219 (natural protein) MSMGLEITGTSLAVLGWLCTIVCCALPMWRVSAFIGSSIITAQITWEGLWMNCVVQSTGQMQCKMYDSLLALPQDLQAARALIVVSILLAAFGLLVALVGAQCTNCVQDETAKAKITIVAGVLFLLAALLTLVPVSWSANTIIRDFYNPLVPEAQKREMGAGLYVGWAAAALQLLGGALLCCSCPPRDKYAPTKILYSAPRSTGPGTGTGTAYDRKDYV	
	mouse claudin-5 wild type, CFP or YFP fusion (Cld5wt-CFP / Cld5wt-YFP) (natural protein, UniProt O54942 1-218, looked up) MGSAALEILGLVLCLVGWVGLILACGLPMWQVTAFLDHNIVTAQTTWKGLWMSCVVQSTGHMQCKVYESVLALSAEVQAARALTVGAVLLALVALFVTLTGAQCTTCVAPGPVKARVALTGGALYAVCGLLALVPLCWFANIVVREFYDPTVPVSQKYELGAALYIGWAASALLMCGGGLVCCGAWVCTGRPEFSFPVKYSAPRRPTANGDYDKKNYV	10 fold
